Experimental data from IntAct's records for PubMed 30323948.

B1: Subversion of eukaryotic traffic protein A (Legionella pneumophila subsp. pneumophila), Q5ZU30 (parent)
chain: MYKIYSYLGWRIDMKTENLPQAGQEAQIDKKIHFIWVGHIMPQKNIQVVSEWAEKNPGYETIIWVDKKIAPAKELDLFILDMKSKGITVKDINEEGVCRDSIRHELDQESPNYGMVSDMLRLNILAAEGGIYLDSDILCSAPFPDEIYAPFGFLLSPWSQGANNTLCNDIILCSKGNQIIQQLADAIEQSYIARDSFEFTHEYASMKETKGERIAKTLGVTGPGFLFHQLKKMGILNDKSEMEAIHWELQDQRYLIDGSVKEPDYFYVPQNNTNDASWVPSIKRPGIENMSFQERLENAVQLIAFDIQKTGLFNLDHYANELKVKQNSWCIAAETSPELKPDSYLLIRPRDKTGEWTLYYVDEDKKLNPVTLPVIKGAIKLSEVSDPLRKFHTLLSQVSDPVNPTAHELKQIGRALIELKPRQDEWHCKNKWSGAEEIAQELWQRITSNETLRAQIKQCFTQFESLKPRVAELGLTRASGAGTEVEAHESTVKEQEIISQNTVGEEGTKEKNSVQLASENSSDEKIKTAHDLIDEIIQDVIQLDGKLGLLGGNTRQLEDGRVINIPNGAAMIFDDYKKYKQGELTAESALESMIKIAKLSNQLNRHTFFNQRQPETGQFYKKVAAIDLQTTIAAEYDNNHGLRI

Variants of: B1
Conditions: with rab1a_human RAB1A

| Variant | effect of a mutation on the interaction |
| --- | --- |
| D134A;D136A | disrupting interaction |

Variants of: B1
Conditions: with rab7a_human RAB7A

| Variant | effect of a mutation on the interaction |
| --- | --- |
| D134A;D136A | disrupting interaction |
